Assay results: patent publication US12065471B2, “B*44 restricted peptides for use in immunotherapy against cancers and related methods” (Immatics Biotechnologies GmbH, priority 2018, dated 2024)

Tests used:
CD8+ T cells = assay: In vitro immunogenicity: T-cell priming with aAPCs loaded with peptide/MHC and anti-CD28, pMHC multimer readout; type: cell-based, human; settings: Table 10a, pMHC multimer readout after T-cell priming
Protocol: After three cycles of stimulation, the detection of peptide-reactive cells was performed by 2D multimer staining with B*44/SEQ ID NO: 469 (FIG. 3A), B*44/SEQ ID NO: 512 (FIG. 3B), B*44/SEQ ID NO: 9 (FIG. 3C), B*44/SEQ ID NO: 11 (D), B*44/SEQ ID NO: 17 (E), B*44/SEQ ID NO: 35 (F) or B*44/SEQ ID NO: 41 (FIG. 3G). Right panels (FIGS. 3A through 3G) show control staining of cells stimulated with irrelevant B*44/peptide complexes. Viable singlet cells were gated for CD8+ lymphocytes. Boolean gates helped excluding false-positive events detected with multimers specific for different peptides.
In order to obtain information regarding the immunogenicity of the TUMAPs of the present invention, the inventors performed investigations using an in vitro T-cell priming assay based on repeated stimulations of CD8+ T cells with artificial antigen presenting cells (aAPCs) loaded with peptide/MHC complexes and anti-CD28 antibody.
In order to perform in vitro stimulations by artificial antigen presenting cells loaded with peptide-MHC complex (pMHC) and anti-CD28 antibody, the inventors first isolated CD8+ T cells from fresh HLA-A*02 leukapheresis products via positive selection using CD8 microbeads (Miltenyi Biotec, Bergisch-Gladbach, Germany) of healthy donors obtained from the University clinics Mannheim, Germany, after informed consent.
PBMCs and isolated CD8+ lymphocytes were incubated in T-cell medium (TCM) until use consisting of RPMI-Glutamax (Invitrogen, Karlsruhe, Germany) supplemented with 10% heat inactivated human AB serum (PAN-Biotech, Aidenbach, Germany), 100 U/ml Penicillin/100 μg/ml Streptomycin (Cambrex, Cologne, Germany), 1 mM sodium pyruvate (CC Pro, Oberdorda, Germany), 20 μg/ml Gentamycin (Cambrex). 2.5 ng/ml IL-7 (PromoCell, Heidelberg, Germany) and 10 U/ml IL-2 (Novartis Pharma, Nümberg, Germany) were also added to the TCM at this step.
Generation of pMHC/anti-CD28 coated beads, T-cell stimulations and readout was performed in a highly defined in vitro system using four different pMHC molecules per stimulation condition and 8 different pMHC molecules per readout condition.
The purified co-stimulatory mouse IgG2a anti human CD28 Ab 9.3 (Jung et al., 1987) was chemically biotinylated using Sulfo-N-hydroxysuccinimidobiotin as recommended by the manufacturer (Perbio, Bonn, Germany). Beads used were 5.6 μm diameter streptavidin coated polystyrene particles (Bangs Laboratories, Illinois, USA).
800.000 beads/200 μl were coated in 96-well plates in the presence of 4×12.5 ng different biotin-pMHC, washed and 600 ng biotin anti-CD28 were added subsequently in a volume of 200 μl. Stimulations were initiated in 96-well plates by co-incubating 1×10^6 CD8+ T cells with 2×10^5 washed coated beads in 200 μl TCM supplemented with 5 ng/ml IL-12 (PromoCell) for 3 days at 37° C. Half of the medium was then exchanged by fresh TCM supplemented with 80 U/ml IL-2 and incubating was continued for 4 days at 37° C. This stimulation cycle was performed for a total of three times. For the pMHC multimer readout using 8 different pMHC molecules per condition, a two-dimensional combinatorial coding approach was used as previously described (Andersen et al., 2012) with minor modifications encompassing coupling to 5 different fluorochromes. Finally, multimeric analyses were performed by staining the cells with Live/dead near IR dye (Invitrogen, Karlsruhe, Germany), CD8-FITC antibody clone SK1 (BD, Heidelberg, Germany) and fluorescent pMHC multimers. For analysis, a BD LSRII SORP cytometer equipped with appropriate lasers and filters was used. Peptide specific cells were calculated as percentage of total CD8+ cells. Evaluation of multimeric analysis was done using the FlowJo software (Tree Star, Oregon, USA). In vitro priming of specific multimer+CD8+ lymphocytes was detected by comparing to negative control stimulations.

HLA-B*44:05 = HLA-B*44:05 (Homo sapiens, UniProt P01889, A223V/A65T/A93T/A95T/D201E/D98Y/E176V/E187L/E204Q/E69K/G107R/H137Y/K202T/L105A/L119I/N104T/N87E/Q56L/Q94N/R106L/R155S/R180D/S101N/S121R/S35A/S48T/T118I/V36M/W191S/Y91S); assay: MHC binding assay (UV-ligand exchange, β2m ELISA, peptide exchange yield); settings: binding to HLA-B*44:05
In short: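 Peptide–HLA complexes formed by UV-ligand exchange of a UV-cleavable peptide for the test peptide. Exchange yield measured by β2m ELISA: complexes diluted 100-fold and captured on streptavidin, detected with HRP anti-β2m and TMB, read at 450 nm. Quantified against refolded HLA-A*02:01/MLA-001 monomer standards, 15-500 ng/ml.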

| Substance | Peptide exchange (MHC class I binding score, peptide exchange yield) (HLA-B*44:05) | Wells positive [%] (CD8+ T cells) |
| --- | --- | --- |
| 479 (QENSYQSRL; listed as Homo sapiens) [compound 479] | – | + (<20% = +) |
| 494 (KEITGFLLI; listed as Homo sapiens) [compound 494] | – | ++ (20%-49% = ++) |
| 477 (VYEKNGYIYF; listed as Homo sapiens) [compound 477] | – | ++++ (>=70% = ++++) |
| 509 (AESEDLAVHLY; listed as Homo sapiens) [compound 509] | – | + (<20% = +) |
| 469 (SEAFPSRAL; listed as Homo sapiens) [compound 469] | – | +++ (50%-69% = +++) |
| 508 (AESEDLAVHL; listed as Homo sapiens) [compound 508] | – | + (<20% = +) |
| 460 (SEFMQVIF; listed as Homo sapiens) [compound 460] | – | + (<20% = +) |
| 504 (KESQLPTVM; listed as Homo sapiens) [compound 504] | – | ++ (20%-49% = ++) |
| 489 (SEYADTHYF; listed as Homo sapiens) [compound 489] | – | +++ (50%-69% = +++) |
| 496 (AEIGEGAYGKVF; listed as Homo sapiens) [compound 496] | – | ++ (20%-49% = ++) |
| 500 (QEVLLQTFL; listed as Homo sapiens) [compound 500] | – | + (<20% = +) |
| 412 (EESFDSKFY; listed as Homo sapiens) [compound 412] | +++ (>50 = +++) | – |
| 308 (EEPKIDFRVY; listed as Homo sapiens) [compound 308] | +++ (>50 = +++) | – |
| 313 (EEINQGGRKY; listed as Homo sapiens) [compound 313] | +++ (>50 = +++) | – |
| 152 (HENLIEDF; listed as Homo sapiens) [compound 152] | +++ (>50 = +++) | – |
| 170 (REMFVFKDQW; listed as Homo sapiens) [compound 170] | ++++ (>75% = ++++) | – |
| 242 (CDAQIQYSY; listed as Homo sapiens) [compound 242] | +++ (>50 = +++) | – |
| 200 (KELSVFKKF; listed as Homo sapiens) [compound 200] | +++ (>50 = +++) | – |
| 296 (AETIFIVRL; listed as Homo sapiens) [compound 296] | ++ (>20% = ++) | – |
| 58 (KEMDPSRQSY; listed as Homo sapiens) [compound 58] | +++ (>50 = +++) | – |
| 255 (KQWEYNEKLAF; listed as Homo sapiens) [compound 255] | + (>10% = +) | – |
| 329 (SEPQITVNF; listed as Homo sapiens) [compound 329] | +++ (>50 = +++) | – |
| 223 (SEVEGLAFV; listed as Homo sapiens) [compound 223] | +++ (>50 = +++) | – |
| 206 (SEDPEKYYL; listed as Homo sapiens) [compound 206] | +++ (>50 = +++) | – |
| 202 (RELPLVLLA; listed as Homo sapiens) [compound 202] | ++ (>20% = ++) | – |
| 392 (TEVSVLLLTF; listed as Homo sapiens) [compound 392] | +++ (>50 = +++) | – |
| 394 (SEILRVTLY; listed as Homo sapiens) [compound 394] | +++ (>50 = +++) | – |
| 334 (LEWQNSSSM; listed as Homo sapiens) [compound 334] | +++ (>50 = +++) | – |
| 14 (EMPGGPVW; listed as Homo sapiens) [compound 14] | +++ (>50 = +++) | – |
| 171 (WEVVHTVF; listed as Homo sapiens) [compound 171] | ++ (>20% = ++) | – |

More lines, main results first:

| Peptide exchange (MHC class I binding score, peptide exchange yield) (HLA-B*44:05) | Substance | Wells positive [%] (CD8+ T cells) |
| --- | --- | --- |
| ++++ (>75% = ++++) | 349 (LEWQHPSSW; listed as Homo sapiens) [compound 349] | – |
| +++ (>50 = +++) | 248 (KESQLPTVMDF; listed as Homo sapiens) [compound 248] | – |
| ++ (>20% = ++) | 316 (RLWPEPENW; listed as Homo sapiens) [compound 316] | – |
| ++++ (>75% = ++++) | 269 (SEDLAVHL; listed as Homo sapiens) [compound 269] | – |
| ++ (>20% = ++) | 355 (SETSTGTSV; listed as Homo sapiens) [compound 355] | – |
| ++++ (>75% = ++++) | 166 (EEQDFINNRY; listed as Homo sapiens) [compound 166] | – |
| ++++ (>75% = ++++) | 353 (AETEEGIYW; listed as Homo sapiens) [compound 353] | – |
| ++++ (>75% = ++++) | 282 (KEFGIGDLVW; listed as Homo sapiens) [compound 282] | – |
| ++++ (>75% = ++++) | 142 (QELFLHPVL; listed as Homo sapiens) [compound 142] | – |
| ++++ (>75% = ++++) | 371 (NEIGQELTGQEW; listed as Homo sapiens) [compound 371] | – |
| +++ (>50 = +++) | 434 (AEQQQQQMY; listed as Homo sapiens) [compound 434] | – |
| +++ (>50 = +++) | 362 (SEVEYINKY; listed as Homo sapiens) [compound 362] | – |
| ++ (>20% = ++) | 440 (QEVAQVASA; listed as Homo sapiens) [compound 440] | – |
| ++++ (>75% = ++++) | 348 (SEVLLTSISTF; listed as Homo sapiens) [compound 348] | – |
| +++ (>50 = +++) | 148 (KESDAGRYY; listed as Homo sapiens) [compound 148] | – |
| ++++ (>75% = ++++) | 243 (VEQINISQDW; listed as Homo sapiens) [compound 243] | – |
| + (>10% = +) | 120 (VTEGAVEVKY; listed as Homo sapiens) [compound 120] | – |
| ++ (>20% = ++) | 107 (YQENPRAAW; listed as Homo sapiens) [compound 107] | – |
| ++++ (>75% = ++++) | 417 (EESFRCLPEW; listed as Homo sapiens) [compound 417] | – |
| ++ (>20% = ++) | 26 (EESSSPVDEY; listed as Homo sapiens) [compound 26] | – |
